B1: DVD716 (antibody)
VH: QVQLQQSGAELMKPGASVKISCKASGYTFTSYWIEWIKQRPGHGLEWIGEILPGTGSLNNNEKFRDKATFTADTSSNTAYMQLSSLTSEDSAVYYCARGYRYDGWFAYWGQGTLVTVSAASTKGPSVFPLAPQVQLQQSGAELMKPGASVKISCKASGYTFTSYWIEWIKQRPGHGLEWIGEILPGTGSLNNNEKFRDKATFTADTSSNTAYMQLSSLTSEDSAVYYCARGYRYDGWFAYWGQGTLVTVSA
VL: DIQMTQSPASLSASVGETVTITCRTSENIYSYLAWYQQKPGKSPHLLVYNTKTLAEGVPSRFSGSGSGTQFSLKINSLQPEDFGSYYCQHHYDSPLTFGSGTKLELKRTVAAPSVFIFPPDIQMTQSPASLSASVGETVTITCRTSENIYSYLAWYQQKPGKSPHLLVYNTKTLAEGVPSRFSGSGSGTQFSLKINSLQPEDFGSYYCQHHYDSPLTFGSGTKLELKR
B2: DVD748 (bispecific antibody)
VH: EVQLQQSGPELVKPGASMKISCKASDYSFTAYTIHWMKQSHGKNLEWIGLINPYNGGTSYNQKFQGRATLTVDKSSSIAYMELLSLTSEDSAVYYCARRGYDREGHYYAMDYWGQGTSVTVSSASTKGPSVFPLAPQVQLQQSGAELMKPGASVKISCKASGYTFTSYWIEWIKQRPGHGLEWIGEILPGTGSLNNNEKFRDKATFTADTSSNTAYMQLSSLTSEDSAVYYCARGYRYDGWFAYWGQGTLVTVSA
VL: DIQMTQSPASLAASVGETVTITCRASENIYTFLAWYQQKQGKSPQLLVYTTKTLAEGVPSRFSGSGSGTQFSLKIKSLQPEDFGSYYCQHHYGLPLTFGAGTKLELKRTVAAPSVFIFPPDIQMTQSPASLSASVGETVTITCRTSENIYSYLAWYQQKPGKSPHLLVYNTKTLAEGVPSRFSGSGSGTQFSLKINSLQPEDFGSYYCQHHYDSPLTFGSGTKLELKR
B3: DVD744 (antibody)
VH: QIQLVQSGPELKKPGETVKISCKASGYTFTDYSMHWVKQAPGKGLKWMGWIHTETGEPRYVDDFKGRFAFSLETSASTAYLQINNLKNEDTATYFCARDSYYFGSSYYFDYWGQGTTLTVSSASTKGPSVFPLAPQIQLVQSGPELKKPGETVKISCKASGYTFTDYSMHWVKQAPGKGLKWMGWIHTETGEPRYVDDFKGRFAFSLETSASTAYLQINNLKNEDTATYFCARDSYYFGSSYYFDYWGQGTTLTVSS
VL: DTVMTQSHKFMSTSVGDRVSITCKASQDVSSAVAWYQQKPGQSPKLLIYSASYRYTGVPDRFTGSGSGMDFTFTISSVQAEDLAVYYCQQHYSTPLTFGAGTKLELERTVAAPSVFIFPPDTVMTQSHKFMSTSVGDRVSITCKASQDVSSAVAWYQQKPGQSPKLLIYSASYRYTGVPDRFTGSGSGMDFTFTISSVQAEDLAVYYCQQHYSTPLTFGAGTKLELER
B4: DVD715 (antibody)
VH: QVQLQQSGAELMKPGASVKISCKASGYTFTSYWIEWIKQRPGHGLEWIGEILPGTGSLNNNEKFRDKATFTADTSSNTAYMQLSSLTSEDSAVYYCARGYRYDGWFAYWGQGTLVTVSAASTKGPQVQLQQSGAELMKPGASVKISCKASGYTFTSYWIEWIKQRPGHGLEWIGEILPGTGSLNNNEKFRDKATFTADTSSNTAYMQLSSLTSEDSAVYYCARGYRYDGWFAYWGQGTLVTVSA
VL: DIQMTQSPASLSASVGETVTITCRTSENIYSYLAWYQQKPGKSPHLLVYNTKTLAEGVPSRFSGSGSGTQFSLKINSLQPEDFGSYYCQHHYDSPLTFGSGTKLELKRTVAAPDIQMTQSPASLSASVGETVTITCRTSENIYSYLAWYQQKPGKSPHLLVYNTKTLAEGVPSRFSGSGSGTQFSLKINSLQPEDFGSYYCQHHYDSPLTFGSGTKLELKR
B5: DVD746 (bispecific antibody)
VH: QVQLQQSGAELMKPGASVKISCKASGYTFTSYWIEWIKQRPGHGLEWIGEILPGTGSLNNNEKFRDKATFTADTSSNTAYMQLSSLTSEDSAVYYCARGYRYDGWFAYWGQGTLVTVSAASTKGPSVFPLAPEVQLQQSGPELVKPGASMKISCKASDYSFTAYTIHWMKQSHGKNLEWIGLINPYNGGTSYNQKFQGRATLTVDKSSSIAYMELLSLTSEDSAVYYCARRGYDREGHYYAMDYWGQGTSVTVSS
VL: DIQMTQSPASLSASVGETVTITCRTSENIYSYLAWYQQKPGKSPHLLVYNTKTLAEGVPSRFSGSGSGTQFSLKINSLQPEDFGSYYCQHHYDSPLTFGSGTKLELKRTVAAPSVFIFPPDIQMTQSPASLAASVGETVTITCRASENIYTFLAWYQQKQGKSPQLLVYTTKTLAEGVPSRFSGSGSGTQFSLKIKSLQPEDFGSYYCQHHYGLPLTFGAGTKLELKR
B6: DVD745 (antibody)
VH: QIQLVQSGPELKKPGETVKISCKASGYTFTDYSMHWVKQAPGKGLKWMGWIHTETGEPRYVDDFKGRFAFSLETSASTAYLQINNLKNEDTATYFCARDSYYFGSSYYFDYWGQGTTLTVSSASTKGPQIQLVQSGPELKKPGETVKISCKASGYTFTDYSMHWVKQAPGKGLKWMGWIHTETGEPRYVDDFKGRFAFSLETSASTAYLQINNLKNEDTATYFCARDSYYFGSSYYFDYWGQGTTLTVSS
VL: DTVMTQSHKFMSTSVGDRVSITCKASQDVSSAVAWYQQKPGQSPKLLIYSASYRYTGVPDRFTGSGSGMDFTFTISSVQAEDLAVYYCQQHYSTPLTFGAGTKLELERTVAAPDTVMTQSHKFMSTSVGDRVSITCKASQDVSSAVAWYQQKPGQSPKLLIYSASYRYTGVPDRFTGSGSGMDFTFTISSVQAEDLAVYYCQQHYSTPLTFGAGTKLELER
B7: DVD747 (bispecific antibody)
VH: QVQLQQSGAELMKPGASVKISCKASGYTFTSYWIEWIKQRPGHGLEWIGEILPGTGSLNNNEKFRDKATFTADTSSNTAYMQLSSLTSEDSAVYYCARGYRYDGWFAYWGQGTLVTVSAASTKGPSVFPLAPASTKGPSVFPLAPEVQLQQSGPELVKPGASMKISCKASDYSFTAYTIHWMKQSHGKNLEWIGLINPYNGGTSYNQKFQGRATLTVDKSSSIAYMELLSLTSEDSAVYYCARRGYDREGHYYAMDYWGQGTSVTVSS
VL: DIQMTQSPASLSASVGETVTITCRTSENIYSYLAWYQQKPGKSPHLLVYNTKTLAEGVPSRFSGSGSGTQFSLKINSLQPEDFGSYYCQHHYDSPLTFGSGTKLELKRTVAAPSVFIFPPTVAAPSVFIFPPDIQMTQSPASLAASVGETVTITCRASENIYTFLAWYQQKQGKSPQLLVYTTKTLAEGVPSRFSGSGSGTQFSLKIKSLQPEDFGSYYCQHHYGLPLTFGAGTKLELKR
B8: DVD750 (antibody)
VH: EVQLQQSGPELVQPGASMKISCKASGYSFTDYTMNWVKQSHGKNLEWIGLINPYNGGSRYNQKFMAKATLTVDKSSNTAYMELLSVTSEDSAVYYCARDAGYFGSGFYFDYWGQGTTLTVSSASTKGPSVFPLAPEVQLQQSGPELVQPGASMKISCKASGYSFTDYTMNWVKQSHGKNLEWIGLINPYNGGSRYNQKFMAKATLTVDKSSNTAYMELLSVTSEDSAVYYCARDAGYFGSGFYFDYWGQGTTLTVSS
VL: DIVMTQSHKFMSTSVGDRVSITCKASQDVSTAVAWYQQKPGQSPKLLIYSASYRSTGVPDRFTGSGSGTDFTFTISSVQAEDLAVYYCQQHYSTPTFGAGTKLELKRTVAAPSVFIFPPDIVMTQSHKFMSTSVGDRVSITCKASQDVSTAVAWYQQKPGQSPKLLIYSASYRSTGVPDRFTGSGSGTDFTFTISSVQAEDLAVYYCQQHYSTPTFGAGTKLELKR

Our source for the Kd values is US20110008766A1.

Broadly, the Kd is the equilibrium constant for the complex coming apart.

This assay deals with HIV antigen. Briefly: FRET quenching titration in solution; one value given for outer and inner domain.
B1 yielded a Kd of less than 20 pM. Under B2 stands less than 30 pM.

On to B3, for which the Kd was 400 pM.

As for B4, the Kd is less than 20 pM. Under B5 stands 200 pM. In turn, B6 gave a Kd of 400 pM. Under B7 stands less than 60 pM. Under B8 stands less than 20 pM.
